The assay addresses T1, human amylin receptor (amylin 3(a) receptor: human calcitonin receptor with RAMP-3) (human, UniProt P30988 25-474; O60896 24-148).
T1 construct: whole, on cells; also called hAmylin-R; hAmylinR
T1 sequence (looked up) 1: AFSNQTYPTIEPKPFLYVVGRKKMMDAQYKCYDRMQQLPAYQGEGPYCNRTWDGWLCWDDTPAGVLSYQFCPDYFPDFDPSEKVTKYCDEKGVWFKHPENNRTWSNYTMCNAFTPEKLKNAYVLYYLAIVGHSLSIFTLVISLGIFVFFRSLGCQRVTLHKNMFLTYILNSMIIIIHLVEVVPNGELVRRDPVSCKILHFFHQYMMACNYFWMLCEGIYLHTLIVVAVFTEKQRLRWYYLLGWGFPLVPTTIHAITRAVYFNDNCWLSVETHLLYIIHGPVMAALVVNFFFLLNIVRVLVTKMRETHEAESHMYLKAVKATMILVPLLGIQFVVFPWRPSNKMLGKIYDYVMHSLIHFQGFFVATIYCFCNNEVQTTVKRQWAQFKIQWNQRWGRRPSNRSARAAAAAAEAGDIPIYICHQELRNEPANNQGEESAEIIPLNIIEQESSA
T1 sequence (looked up) 2: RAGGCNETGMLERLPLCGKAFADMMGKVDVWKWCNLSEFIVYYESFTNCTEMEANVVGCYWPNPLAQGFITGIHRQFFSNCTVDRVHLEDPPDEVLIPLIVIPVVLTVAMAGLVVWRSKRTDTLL
The experiment in a line: SPA displacement of 125I-rat amylin, hAmylin 3(a) receptor membranes. The essentials:
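Membranes from BHK Amylin 3(a)/CRE-luc cells (35 ng/μL final) were mixed with SPA beads and test compounds in 50 mM Hepes pH 7.4 with 1 mM CaCl2, 5 mM MgCl₂, 0.1% OA and 0.02% Tween20. Incubation ran 120 min at 25° C with shaking; IC₅₀ came from one-site competition fitting.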

Numbered stars: 1 amine (or outer) side, 2 acyl side, 3 side chain; on linkers, the order of the positions; unused ones are H or OH. Bridge positions count the residues as written; N and C are the ends. Side chains are listed from the residue outwards. Ends that are not written are not given here. * marks the point of attachment. C20 diacid = O=C(O)CCCCCCCCCCCCCCCCCCC(=O)*; γGlu = O=C(O)[C@H](CCC(=O)[*:2])N[*:1]; AEEA = NCCOCCOCC(=O)O

B1: N^α1-[(4S)-4-carboxy-4-[[(4S)-4-carboxy-4-(19-carboxynonadecanoylamino)butanoyl]amino]butanoyl]-[Glu14,Arg17,Pro21,Pro27,Pro37]-h-amylin (peptide)
peptide: {C20 diacid-γGlu-γGlu}-KCNTATCATQRLAEFLRHSSPNFGAIPSSTNVGSNTP-NH2
modifications: disulfide 2-7
SMILES: CC[C@H](C)[C@H](NC(=O)[C@H](C)NC(=O)CNC(=O)[C@H](Cc1ccccc1)NC(=O)[C@H](CC(N)=O)NC(=O)[C@@H]1CCCN1C(=O)[C@H](CO)NC(=O)[C@H](CO)NC(=O)[C@H](Cc1c[nH]cn1)NC(=O)[C@H](CCCNC(=N)N)NC(=O)[C@H](CC(C)C)NC(=O)[C@H](Cc1ccccc1)NC(=O)[C@H](CCC(=O)O)NC(=O)[C@H](C)NC(=O)[C@H](CC(C)C)NC(=O)[C@H](CCCNC(=N)N)NC(=O)[C@H](CCC(N)=O)NC(=O)[C@@H](NC(=O)[C@H](C)NC(=O)[C@@H]1CSSC[C@H](NC(=O)[C@H](CCCCN)NC(=O)CC[C@H](NC(=O)CC[C@H](NC(=O)CCCCCCCCCCCCCCCCCCC(=O)O)C(=O)O)C(=O)O)C(=O)N[C@@H](CC(N)=O)C(=O)N[C@@H]([C@@H](C)O)C(=O)N[C@@H](C)C(=O)N[C@@H]([C@@H](C)O)C(=O)N1)[C@@H](C)O)C(=O)N1CCC[C@H]1C(=O)N[C@@H](CO)C(=O)N[C@@H](CO)C(=O)N[C@H](C(=O)N[C@@H](CC(N)=O)C(=O)N[C@H](C(=O)NCC(=O)N[C@@H](CO)C(=O)N[C@@H](CC(N)=O)C(=O)N[C@H](C(=O)N1CCC[C@H]1C(N)=O)[C@@H](C)O)C(C)C)[C@@H](C)O
notes: also called 14; compound 14
A word on the IC50: it is the point on the concentration scale where inhibition reaches its midpoint. On to B1, for which the IC50 amounted to 196 pM.

B2: N^ε1-[2-[2-[2-(19-carboxynonadecanoylamino)ethoxy]ethoxy]acetyl]-[His14,Arg17,Pro21,Pro27]-h-amylin (peptide)
peptide: K([AEEA-C20 diacid])CNTATCATQRLAHFLRHSSPNFGAIPSSTNVGSNTY-NH2
modifications: disulfide 2-7; N-terminus assumed
SMILES: CC[C@H](C)[C@H](NC(=O)[C@H](C)NC(=O)CNC(=O)[C@H](Cc1ccccc1)NC(=O)[C@H](CC(N)=O)NC(=O)[C@@H]1CCCN1C(=O)[C@H](CO)NC(=O)[C@H](CO)NC(=O)[C@H](Cc1c[nH]cn1)NC(=O)[C@H](CCCNC(=N)N)NC(=O)[C@H](CC(C)C)NC(=O)[C@H](Cc1ccccc1)NC(=O)[C@H](Cc1c[nH]cn1)NC(=O)[C@H](C)NC(=O)[C@H](CC(C)C)NC(=O)[C@H](CCCNC(=N)N)NC(=O)[C@H](CCC(N)=O)NC(=O)[C@@H](NC(=O)[C@H](C)NC(=O)[C@@H]1CSSC[C@H](NC(=O)[C@@H](N)CCCCNC(=O)COCCOCCNC(=O)CCCCCCCCCCCCCCCCCCC(=O)O)C(=O)N[C@@H](CC(N)=O)C(=O)N[C@@H]([C@@H](C)O)C(=O)N[C@@H](C)C(=O)N[C@@H]([C@@H](C)O)C(=O)N1)[C@@H](C)O)C(=O)N1CCC[C@H]1C(=O)N[C@@H](CO)C(=O)N[C@@H](CO)C(=O)N[C@H](C(=O)N[C@@H](CC(N)=O)C(=O)N[C@H](C(=O)NCC(=O)N[C@@H](CO)C(=O)N[C@@H](CC(N)=O)C(=O)N[C@H](C(=O)N[C@@H](Cc1ccc(O)cc1)C(N)=O)[C@@H](C)O)C(C)C)[C@@H](C)O
notes: also called 90; compound 90
For B2, the half-inhibitory concentration (IC50) stood at 61 pM.

B3: N^ε1-[2-[2-[2-[[2-[2-[2-[[(4S)-4-carboxy-4-(19-carboxynonadecanoylamino)butanoyl]amino]ethoxy]ethoxy]acetyl]amino]ethoxy]ethoxy]acetyl]-[Arg17,Pro21,Pro27,Arg34 … (peptide)
peptide: K([AEEA-AEEA-γGlu-C20 diacid])CNTATCATQRLANFLRHSSPNFGAIPSSTNVGRNTY-NH2
modifications: disulfide 2-7; N-terminus assumed
SMILES: CC[C@H](C)[C@H](NC(=O)[C@H](C)NC(=O)CNC(=O)[C@H](Cc1ccccc1)NC(=O)[C@H](CC(N)=O)NC(=O)[C@@H]1CCCN1C(=O)[C@H](CO)NC(=O)[C@H](CO)NC(=O)[C@H](Cc1c[nH]cn1)NC(=O)[C@H](CCCNC(=N)N)NC(=O)[C@H](CC(C)C)NC(=O)[C@H](Cc1ccccc1)NC(=O)[C@H](CC(N)=O)NC(=O)[C@H](C)NC(=O)[C@H](CC(C)C)NC(=O)[C@H](CCCNC(=N)N)NC(=O)[C@H](CCC(N)=O)NC(=O)[C@@H](NC(=O)[C@H](C)NC(=O)[C@@H]1CSSC[C@H](NC(=O)[C@@H](N)CCCCNC(=O)COCCOCCNC(=O)COCCOCCNC(=O)CC[C@H](NC(=O)CCCCCCCCCCCCCCCCCCC(=O)O)C(=O)O)C(=O)N[C@@H](CC(N)=O)C(=O)N[C@@H]([C@@H](C)O)C(=O)N[C@@H](C)C(=O)N[C@@H]([C@@H](C)O)C(=O)N1)[C@@H](C)O)C(=O)N1CCC[C@H]1C(=O)N[C@@H](CO)C(=O)N[C@@H](CO)C(=O)N[C@H](C(=O)N[C@@H](CC(N)=O)C(=O)N[C@H](C(=O)NCC(=O)N[C@@H](CCCNC(=N)N)C(=O)N[C@@H](CC(N)=O)C(=O)N[C@H](C(=O)N[C@@H](Cc1ccc(O)cc1)C(N)=O)[C@@H](C)O)C(C)C)[C@@H](C)O
notes: also called 95; compound 95
As to B3, the IC50 stood at 967 pM.

B4: N^ε1-[2-[2-[2-[[2-[2-[2-[[(4S)-4-carboxy-4-(19-carboxynonadecanoylamino)butanoyl]amino]ethoxy]ethoxy]acetyl]amino]ethoxy]ethoxy]acetyl]-[Arg17,Pro21,Pro27,Glu35 … (peptide)
peptide: K([AEEA-AEEA-γGlu-C20 diacid])CNTATCATQRLANFLRHSSPNFGAIPSSTNVGSETY-NH2
modifications: disulfide 2-7; N-terminus assumed
SMILES: CC[C@H](C)[C@H](NC(=O)[C@H](C)NC(=O)CNC(=O)[C@H](Cc1ccccc1)NC(=O)[C@H](CC(N)=O)NC(=O)[C@@H]1CCCN1C(=O)[C@H](CO)NC(=O)[C@H](CO)NC(=O)[C@H](Cc1c[nH]cn1)NC(=O)[C@H](CCCNC(=N)N)NC(=O)[C@H](CC(C)C)NC(=O)[C@H](Cc1ccccc1)NC(=O)[C@H](CC(N)=O)NC(=O)[C@H](C)NC(=O)[C@H](CC(C)C)NC(=O)[C@H](CCCNC(=N)N)NC(=O)[C@H](CCC(N)=O)NC(=O)[C@@H](NC(=O)[C@H](C)NC(=O)[C@@H]1CSSC[C@H](NC(=O)[C@@H](N)CCCCNC(=O)COCCOCCNC(=O)COCCOCCNC(=O)CC[C@H](NC(=O)CCCCCCCCCCCCCCCCCCC(=O)O)C(=O)O)C(=O)N[C@@H](CC(N)=O)C(=O)N[C@@H]([C@@H](C)O)C(=O)N[C@@H](C)C(=O)N[C@@H]([C@@H](C)O)C(=O)N1)[C@@H](C)O)C(=O)N1CCC[C@H]1C(=O)N[C@@H](CO)C(=O)N[C@@H](CO)C(=O)N[C@H](C(=O)N[C@@H](CC(N)=O)C(=O)N[C@H](C(=O)NCC(=O)N[C@@H](CO)C(=O)N[C@@H](CCC(=O)O)C(=O)N[C@H](C(=O)N[C@@H](Cc1ccc(O)cc1)C(N)=O)[C@@H](C)O)C(C)C)[C@@H](C)O
notes: also called 25; compound 25
Take B4: the half-maximal inhibitory concentration (IC50) came to 768 pM.

B5: N^ε1-[2-[2-[2-(19-carboxynonadecanoylamino)ethoxy]ethoxy]acetyl]-[Arg17,Pro21,Pro27,His34]-h-amylin (peptide)
peptide: K([AEEA-C20 diacid])CNTATCATQRLANFLRHSSPNFGAIPSSTNVGHNTY-NH2
modifications: disulfide 2-7; N-terminus assumed
SMILES: CC[C@H](C)[C@H](NC(=O)[C@H](C)NC(=O)CNC(=O)[C@H](Cc1ccccc1)NC(=O)[C@H](CC(N)=O)NC(=O)[C@@H]1CCCN1C(=O)[C@H](CO)NC(=O)[C@H](CO)NC(=O)[C@H](Cc1c[nH]cn1)NC(=O)[C@H](CCCNC(=N)N)NC(=O)[C@H](CC(C)C)NC(=O)[C@H](Cc1ccccc1)NC(=O)[C@H](CC(N)=O)NC(=O)[C@H](C)NC(=O)[C@H](CC(C)C)NC(=O)[C@H](CCCNC(=N)N)NC(=O)[C@H](CCC(N)=O)NC(=O)[C@@H](NC(=O)[C@H](C)NC(=O)[C@@H]1CSSC[C@H](NC(=O)[C@@H](N)CCCCNC(=O)COCCOCCNC(=O)CCCCCCCCCCCCCCCCCCC(=O)O)C(=O)N[C@@H](CC(N)=O)C(=O)N[C@@H]([C@@H](C)O)C(=O)N[C@@H](C)C(=O)N[C@@H]([C@@H](C)O)C(=O)N1)[C@@H](C)O)C(=O)N1CCC[C@H]1C(=O)N[C@@H](CO)C(=O)N[C@@H](CO)C(=O)N[C@H](C(=O)N[C@@H](CC(N)=O)C(=O)N[C@H](C(=O)NCC(=O)N[C@@H](Cc1c[nH]cn1)C(=O)N[C@@H](CC(N)=O)C(=O)N[C@H](C(=O)N[C@@H](Cc1ccc(O)cc1)C(N)=O)[C@@H](C)O)C(C)C)[C@@H](C)O
notes: also called 91; compound 91
As for B5, the half-inhibitory concentration (IC50) is 119 pM.

B6: N^α1N^α1-[(4S)-4-carboxy-4-(19-carboxynonadecanoylamino)butanoyl]-[Glu14,Arg17,Pro21,Pro27,Glu35]-h-amylin (peptide)
peptide: {C20 diacid-γGlu}-KCNTATCATQRLAEFLRHSSPNFGAIPSSTNVGSETY-NH2
modifications: disulfide 2-7
SMILES: CC[C@H](C)[C@H](NC(=O)[C@H](C)NC(=O)CNC(=O)[C@H](Cc1ccccc1)NC(=O)[C@H](CC(N)=O)NC(=O)[C@@H]1CCCN1C(=O)[C@H](CO)NC(=O)[C@H](CO)NC(=O)[C@H](Cc1c[nH]cn1)NC(=O)[C@H](CCCNC(=N)N)NC(=O)[C@H](CC(C)C)NC(=O)[C@H](Cc1ccccc1)NC(=O)[C@H](CCC(=O)O)NC(=O)[C@H](C)NC(=O)[C@H](CC(C)C)NC(=O)[C@H](CCCNC(=N)N)NC(=O)[C@H](CCC(N)=O)NC(=O)[C@@H](NC(=O)[C@H](C)NC(=O)[C@@H]1CSSC[C@H](NC(=O)[C@H](CCCCN)NC(=O)CC[C@H](NC(=O)CCCCCCCCCCCCCCCCCCC(=O)O)C(=O)O)C(=O)N[C@@H](CC(N)=O)C(=O)N[C@@H]([C@@H](C)O)C(=O)N[C@@H](C)C(=O)N[C@@H]([C@@H](C)O)C(=O)N1)[C@@H](C)O)C(=O)N1CCC[C@H]1C(=O)N[C@@H](CO)C(=O)N[C@@H](CO)C(=O)N[C@H](C(=O)N[C@@H](CC(N)=O)C(=O)N[C@H](C(=O)NCC(=O)N[C@@H](CO)C(=O)N[C@@H](CCC(=O)O)C(=O)N[C@H](C(=O)N[C@@H](Cc1ccc(O)cc1)C(N)=O)[C@@H](C)O)C(C)C)[C@@H](C)O
notes: also called 22; compound 22
In the case of B6, the IC50 worked out at 794 pM.

Source of the values: patent US20140087995A1 (published 2014).
